57 variants from the RNAGym collection of RNA variant scans (doi:10.7554/elife.80360) can be followed below.

B1: Hammerhead Ribozyme (parent)
chain: ACCGGAUGUGCUUUCCGGUCUGAUGAGUCCGUGAGGACGAAACAG

The data set covers variants of B1. The experiment in a line: self-cleavage, relative activity (ratio to wild type); higher = more cleavage; co-transcriptional.
In the case of ACAGGAUGAGCUUUCCGGUCUGAUGAGUCCGUGAGGACGAAACAG [C3A U9A], the self-cleavage stood at 0.476.
As to ACAGGAUGCGCUUUCCGGUCUGAUGAGUCCGUGAGGACGAAACAG [C3A U9C], the self-cleavage was 0.756.
As for ACAGGAUGGGCUUUCCGGUCUGAUGAGUCCGUGAGGACGAAACAG [C3A U9G], the self-cleavage is 0.327.
In the case of ACAGGAUGUCCUUUCCGGUCUGAUGAGUCCGUGAGGACGAAACAG [C3A G10C], the self-cleavage was determined as 0.587.
For the variant ACAGGAUGUUCUUUCCGGUCUGAUGAGUCCGUGAGGACGAAACAG [C3A G10U], the self-cleavage came out at 0.921.
Consider ACAGGAUGUACUUUCCGGUCUGAUGAGUCCGUGAGGACGAAACAG [C3A G10A], for which the self-cleavage came out at 0.897.
Take ACAGGAUGUGCUUUCCGAUCUGAUGAGUCCGUGAGGACGAAACAG [C3A G18A]: the self-cleavage is 0.344.
To ACAGGAUGUGCUUUCCGCUCUGAUGAGUCCGUGAGGACGAAACAG [C3A G18C] belongs 0.365.
To ACAGGAUGUGCUUUCCGUUCUGAUGAGUCCGUGAGGACGAAACAG [C3A G18U] belongs 0.324; to ACAGGAUGUGCUUUCCGGUCUGAUGAGUCCGUGAGGAUGAAACAG [C3A C38U], 0.515; to ACAGGAUGUGCUUUCCGGUCUGAUGAGUCCGUGAGGAGGAAACAG [C3A C38G], 0.329.
With ACAGGAUGUGCUUUCCGGUCUGAUGAGUCCGUGAGGAAGAAACAG [C3A C38A], the self-cleavage came out at 0.315.
As for ACAGGAUGUGCUUUCCGGUCUGAUGAGUCCGUGAGGGCGAAACAG [C3A A37G], the self-cleavage is 0.539.
With ACAGGAUGUGCUUUCCGGUCUGAUGAGUCCGUGAGGUCGAAACAG [C3A A37U], the self-cleavage is 0.388.
Turning to ACAGGAUGUGCUUUCCGGUCUGAUGAGUCCGUGAGGCCGAAACAG [C3A A37C], the self-cleavage worked out at 0.354.
Regarding ACAGGAUGUGCUUUCCGGUCUGAUGAGUCCGUGACGACGAAACAG [C3A G35C], the self-cleavage turned out to be 0.324.
On to ACAGGAUGUGCUUUCCGGUCUGAUGAGUCCGUGAAGACGAAACAG [C3A G35A], for which the self-cleavage came to 0.376.
In the case of ACAGGAUGUGCUUUCCGGUCUGAUGAGUCCGUGAUGACGAAACAG [C3A G35U], the self-cleavage turned out to be 0.369.
ACAGGAUGUGCUUUCCGGUCUGAUGAGUCCGUGAGUACGAAACAG [C3A G36U]: the self-cleavage came out at 0.283.
On to ACAGGAUGUGCUUUCCGGUCUGAUGAGUCCGUGAGAACGAAACAG [C3A G36A], for which the self-cleavage came out at 0.287.
As for ACAGGAUGUGCUUUCCGGUCUGAUGAGUCCGUGAGCACGAAACAG [C3A G36C], the self-cleavage is 0.338.
Regarding ACAGGAUGUGCUUUCCGGUCUGAUGAGUCCGUCAGGACGAAACAG [C3A G33C], the self-cleavage came to 0.741.
As for ACAGGAUGUGCUUUCCGGUCUGAUGAGUCCGUAAGGACGAAACAG [C3A G33A], the self-cleavage stood at 0.674.
Take ACAGGAUGUGCUUUCCGGUCUGAUGAGUCCGUUAGGACGAAACAG [C3A G33U]: the self-cleavage came to 0.733.
For ACAGGAUGUGCAUUCCGGUCUGAUGAGUCCGUGAGGACGAAACAG [C3A U12A], the self-cleavage was found to be 0.836.
With ACAGGAUGUGCGUUCCGGUCUGAUGAGUCCGUGAGGACGAAACAG [C3A U12G], the self-cleavage came out at 0.487.
Regarding ACAGGAUGUGCCUUCCGGUCUGAUGAGUCCGUGAGGACGAAACAG [C3A U12C], the self-cleavage was found to be 0.262.
On to ACAGGAUGUGCUUUCCAGUCUGAUGAGUCCGUGAGGACGAAACAG [C3A G17A], for which the self-cleavage was found to be 0.634.
On to ACAGGAUGUGCUUUCCUGUCUGAUGAGUCCGUGAGGACGAAACAG [C3A G17U], for which the self-cleavage stood at 0.874.
ACAGGAUGUGCUUUCCCGUCUGAUGAGUCCGUGAGGACGAAACAG [C3A G17C]: the self-cleavage turned out to be 0.708.
Consider ACAGGAUGUGCUGUCCGGUCUGAUGAGUCCGUGAGGACGAAACAG [C3A U13G], for which the self-cleavage was 0.847.
ACAGGAUGUGCUCUCCGGUCUGAUGAGUCCGUGAGGACGAAACAG [C3A U13C]: the self-cleavage came to 0.963.
Then ACAGGAUGUGCUAUCCGGUCUGAUGAGUCCGUGAGGACGAAACAG [C3A U13A], with 1.33; and ACAGGAUGUGCUUUCCGGUCUGAUGAGUCCGUGAGGACUAAACAG [C3A G39U], with 0.235; and ACAGGAUGUGCUUUCCGGUCUGAUGAGUCCGUGAGGACAAAACAG [C3A G39A], with 0.277.
For ACAGGAUGUGCUUUCCGGUCUGAUGAGUCCGUGAGGACCAAACAG [C3A G39C], the self-cleavage was found to be 0.282.
In the case of ACAGGAUGUGCUUUCCGGUCUGAUGAGUCCUUGAGGACGAAACAG [C3A G31U], the self-cleavage amounted to 1.05.
ACAGGAUGUGCUUUCCGGUCUGAUGAGUCCAUGAGGACGAAACAG [C3A G31A]: the self-cleavage is 0.912.
As for ACAGGAUGUGCUUUCCGGUCUGAUGAGUCCCUGAGGACGAAACAG [C3A G31C], the self-cleavage is 0.791.
Then ACAGGAUGUGCUUUCCGGUCUGAUGAGUCCGUGAGGACGAAAUAG [C3A C43U], with 0.378; and ACAGGAUGUGCUUUCCGGUCUGAUGAGUCCGUGAGGACGAAAGAG [C3A C43G], with 0.261.
Consider ACAGGAUGUGCUUUCCGGUCUGAUGAGUCCGUGAGGACGAAAAAG [C3A C43A], for which the self-cleavage turned out to be 0.28.
To ACAGGAUGUGCUUUUCGGUCUGAUGAGUCCGUGAGGACGAAACAG [C3A C15U] belongs 0.518; to ACAGGAUGUGCUUUGCGGUCUGAUGAGUCCGUGAGGACGAAACAG [C3A C15G], 0.346.
On to ACAGGAUGUGCUUUACGGUCUGAUGAGUCCGUGAGGACGAAACAG [C3A C15A], for which the self-cleavage was determined as 0.312.
Then AUCGGAUGUGCUUUCCGGUCUGAUGAGUCCGGGAGGACGAAACAG [C2U U32G], with 1.04; and ACAGGAUGUGCUUUCCGGUCUGGUGAGUCCGUGAGGACGAAACAG [C3A A23G], with 0.296; and ACAGGAUGUGCUUUCCGGUCUGCUGAGUCCGUGAGGACGAAACAG [C3A A23C], with 0.352.
Consider ACAGGAUGUGCUUUCCGGUCUGUUGAGUCCGUGAGGACGAAACAG [C3A A23U], for which the self-cleavage worked out at 0.28.
To ACAGGAUGUGCUUUCAGGUCUGAUGAGUCCGUGAGGACGAAACAG [C3A C16A] belongs 0.596.
With ACAGGAUGUGCUUUCGGGUCUGAUGAGUCCGUGAGGACGAAACAG [C3A C16G], the self-cleavage was determined as 0.438.
ACAGGAUGUGCUUUCUGGUCUGAUGAGUCCGUGAGGACGAAACAG [C3A C16U]: the self-cleavage turned out to be 0.557.
Take ACAGGAUGUGCUUUCCGGUCUGAUGAGUCCGUGAGGACGACACAG [C3A A41C]: the self-cleavage worked out at 0.299.
Take ACAGGAUGUGCUUUCCGGUCUGAUGAGUCCGUGAGGACGAUACAG [C3A A41U]: the self-cleavage turned out to be 0.259.
For the variant ACAGGAUGUGCUUUCCGGUCUGAUGAGUCCGUGAGGACGAGACAG [C3A A41G], the self-cleavage worked out at 0.262.
In the case of ACAGGAUGUGCUUUCCGGUCUGAUGAGUCAGUGAGGACGAAACAG [C3A C30A], the self-cleavage turned out to be 0.557.
On to ACAGGAUGUGCUUUCCGGUCUGAUGAGUCUGUGAGGACGAAACAG [C3A C30U], for which the self-cleavage is 0.772.
